From patent US6428997 come the findings set out here.

In data set [1] the target is T1, leucyl oligopeptide of SEQ ID NO: 2.
T1 chain: LFPTEPS

Data set [2] has as its target T2, methionyl oligopeptide of SEQ ID NO: 1 (Met-Phe-Pro-Thr-Glu-Pro-Ser).
T2 chain: MFPTEPS

B1: Aeromonas proteolytica (Vibrio proteolytica) aminopeptidase (protein)
chain: MPPITQQATVTAWLPQVDASQITGTISSLESFTNRFYTTTSGAQASDWIASEWQALSASLPNASVKQVSHSGYNQKSVVMTITGSEAPDEWIVIGGHLDSTIGSHTNEQSVAPGADDDASGIAAVTEVIRVLSENNFQPKRSIAFMAYAAEEVGLRGSQDLANQYKSEGKNVVSALQLDMTNYKGSAQDVVFITDYTDSNFTQYLTQLMDEYLPSLTYGFDTCGYACSDHASWHNAGYPAAMPFESKFNDYNPRIHTTQDTLANSDPTGSHAKKFTQLGLAYAIEMGSATGDTPTPGNQ
For B1, in data set [1], the Kcat/Km is 211000 M⁻¹ s⁻¹, the Km is 336 µM and the catalytic constant (kcat) came to 70.3 s⁻¹. Besides, in data set [2], the Kcat/Km was 3760 M⁻¹ s⁻¹, the Michaelis-Menten constant (Km) came out at 956 µM and the turnover number (kcat) turned out to be 3.23 s⁻¹.

In general, Km refers to the concentration of substrate that gives half-maximal velocity. As a reminder, the kcat is the number of substrate molecules converted per active site and unit of time at saturation.
